In US20170008928A1, “NOVEL PEPTIDES AND PEPTIDE DERIVATIVES AND USES THEREOF” (Novo Nordisk A/S, priority 2015, published 2017):
Where two headings read alike, the source gives them in different places. Starred links: 1 amine or outer side, 2 acyl side, 3 side chain; linkers in the order of their positions; H or OH if unused. Non-standard residues stand in square brackets, D forms with d. Residues, ends and D or L forms follow the SMILES beside them. *: point of attachment. sY = N[C@@H](Cc1ccc(OS(=O)(=O)O)cc1)C(=O)O; C18 diacid = O=C(O)CCCCCCCCCCCCCCCCC(=O)*; C16 diacid = O=C(O)CCCCCCCCCCCCCCC(=O)*; γGlu = O=C(O)[C@H](CCC(=O)[*:2])N[*:1]; C14 diacid = O=C(O)CCCCCCCCCCCCC(=O)*; NMeF = CN[C@@H](Cc1ccccc1)C(=O)O; dNMeD = CN[C@H](CC(=O)O)C(=O)O; Nle = CCCC[C@H](N)C(=O)O; AEEA = NCCOCCOCC(=O)O

Experiments:
[1] = molecular target: T1, human cholecystokinin-2 receptor (CCK-2R) (Homo sapiens, UniProt P32239); test: In vitro potency on CCK-2R, whole cell functional assay (IP1 accumulation, IP-One HTRF); assay type: cell-based
T1 construct: host or cells: 1321-N1 cells (plasma membranes prepared by Evotec AG Hamburg)
T1 sequence (P32239 1-447): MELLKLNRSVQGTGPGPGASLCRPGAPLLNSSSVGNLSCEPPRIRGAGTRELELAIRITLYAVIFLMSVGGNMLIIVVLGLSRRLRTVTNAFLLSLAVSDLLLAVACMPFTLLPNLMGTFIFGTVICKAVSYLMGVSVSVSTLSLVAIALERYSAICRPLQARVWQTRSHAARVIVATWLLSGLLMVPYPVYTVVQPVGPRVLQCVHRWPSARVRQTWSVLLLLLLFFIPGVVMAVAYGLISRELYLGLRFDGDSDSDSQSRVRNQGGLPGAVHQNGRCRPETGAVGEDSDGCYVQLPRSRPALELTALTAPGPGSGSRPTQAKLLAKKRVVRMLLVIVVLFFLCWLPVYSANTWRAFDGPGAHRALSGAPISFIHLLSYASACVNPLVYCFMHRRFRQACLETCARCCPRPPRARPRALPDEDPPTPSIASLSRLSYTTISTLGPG

[2] = molecular target: T2, human cholecystokinin-2 receptor (human, UniProt P32239 1-447); test: cell-based or functional assay
T2 sequence (looked up): T1 sequence (P32239 1-447)

[3] = 1321-N1 cells stably expressing CCK-2R, IP1 accumulation, highest dose tested 1×10^6 pM, read-out: EC50 (CCK-2R)

Row | Molecule | EC50 [1, 3] | EC50 (CCK-2R) [2] | further results
1 | CCCC[C@H](NC(=O)[C@H](Cc1ccc(OS(=O)(=O)O)cc1)NC(=O)[C@H](CC(=O)O)NC(=O)COCCOCCNC(=O)COCCOCCNC(=O)CC[C@H](NC(=O)CCCCCCCCCCCCCCCCC(=O)O)C(=O)O)C(=O)NCC(=O)N[C@@H](Cc1c[nH]c2ccccc12)C(=O)N[C@@H](CCCC)C(=O)N(C)[C@H](CC(=O)O)C(=O)N[C@@H](Cc1c[nH]c2ccccc12)C(N)=O [Example 1, 2-[2-[2-[[2-[2-[2-[[(4S)-4-Carboxy-4-(17-carboxyheptadecanoylamino)butanoyl]amino]ethoxy]ethoxy]acetyl]amino]ethoxy]ethoxy]acetyl-Asp-sTyr-Nle-Gly-Trp-Nle-DMeAsp-Trp-amide] ({C18 diacid-γGlu-AEEA-AEEA}-D[sY][Nle]GW[Nle][dNMeD]W-NH2) | > 1000 nM | – | –
2 | 2-[2-[2-[[2-[2-[2-[[(4S)-4-Carboxy-4-(19-carboxynonadecanoylamino)butanoyl]amino]ethoxy]ethoxy]acetyl]amino]ethoxy]ethoxy]acetyl-Asp-Phe(4-sulfomethyl)-Leu-Gly-Trp-Nle-DMeAsp-MePhe-amide (peptide) | – | > 1000 nM | –
3 | Asp-sTyr-Pro-Gly-Trp-Nle-DMeAsp-MePhe-amide (peptide) | – | > 1000 nM | –
4 | CCCC[C@H](NC(=O)[C@H](Cc1c[nH]c2ccccc12)NC(=O)CNC(=O)[C@H](CC(C)C)NC(=O)[C@H](Cc1ccc(OS(=O)(=O)O)cc1)NC(=O)[C@H](CCC(=O)O)NC(=O)COCCOCCNC(=O)COCCOCCNC(=O)CC[C@H](NC(=O)CCCCCCCCCCCCCCC(=O)O)C(=O)O)C(=O)N(C)[C@H](CC(=O)O)C(=O)N(C)[C@@H](Cc1ccccc1)C(N)=O [Example 39, 2-[2-[2-[[2-[2-[2-[[(4S)-4-Carboxy-4-(15-carboxypentadecanoylamino)butanoyl]amino]ethoxy]ethoxy]acetyl]amino]ethoxy]ethoxy]acetyl-Glu-sTyr-Leu-Gly-Trp-Nle-DMeAsp-MePhe-amide] ({C16 diacid-γGlu-AEEA-AEEA}-E[sY]LGW[Nle][dNMeD][NMeF]-NH2) | 110 nM | – | –
5 | CCCC[C@H](NC(=O)[C@H](Cc1c[nH]c2ccccc12)NC(=O)CNC(=O)[C@H](Cc1c[nH]cn1)NC(=O)[C@H](Cc1ccc(OS(=O)(=O)O)cc1)NC(=O)[C@H](CC(=O)O)NC(=O)COCCOCCNC(=O)COCCOCCNC(=O)CC[C@H](NC(=O)CCCCCCCCCCCCCCCCC(=O)O)C(=O)O)C(=O)N(C)[C@H](CC(=O)O)C(=O)N(C)[C@@H](Cc1ccccc1)C(N)=O [Example 48, 2-[2-[2-[[2-[2-[2-[[(4S)-4-Carboxy-4-(17-carboxyheptadecanoylamino)butanoyl]amino]ethoxy]ethoxy]acetyl]amino]ethoxy]ethoxy]acetyl-Asp-sTyr-His-Gly-Trp-Nle-DMeAsp-MePhe-amide] ({C18 diacid-γGlu-AEEA-AEEA}-D[sY]HGW[Nle][dNMeD][NMeF]-NH2) | > 1000 nM | – | –
6 | 2-[2-[2-[[2-[2-[2-[[(4S)-4-Carboxy-4-(13-carboxytridecanoylamino)butanoyl]amino]ethoxy]ethoxy]acetyl]amino]ethoxy]ethoxy]acetyl-Asp-Phe(4-sulfomethyl)-Leu-Gly-Trp-Nle-DMeAsp-MePhe-amide (peptide) | – | > 1000 nM | –
7 | 2-[2-[2-[[2-[2-[2-[[(4S)-4-Carboxy-4-(17-carboxyheptadecanoylamino)butanoyl]amino]ethoxy]ethoxy]acetyl]amino]ethoxy]ethoxy]acetyl-bAsp-Phe(4-sulfomethyl)-Nle-Gly-Trp-Nle-DMeAsp-MePhe-amide (peptide) | – | > 1000 nM | –
8 | Asp-sTyr-His-Gly-Trp-Nle-DMeAsp-MePhe-amide (peptide) | – | > 1000 nM | –
9 | DGlu-sTyr-Leu-Gly-Trp-Nle-DMeAsp-MePhe-amide (peptide) | – | > 1000 nM | –
10 | Asp-sTyr-Ile-Gly-Trp-Nle-DMeAsp-MePhe-amide (peptide) | – | > 1000 nM | –
11 | 2-[2-[2-[[2-[2-[2-[[(4S)-4-Carboxy-4-(17-carboxyheptadecanoylamino)butanoyl]amino]ethoxy]ethoxy]acetyl]amino]ethoxy]ethoxy]acetyl-DAsp-Phe(4-sulfomethyl)-Nle-Gly-Trp-Nle-DMeAsp-MePhe-amide (peptide) | – | > 1000 nM | –
12 | Asp-Phe(4-sulfomethyl)-Leu-Gly-Trp-Nle-DMeAsp-MePhe-amide (peptide) | – | > 1000 nM | –
13 | Asp-sTyr-Nle-Gly-Trp-Nle-DMeAsp-MePhe-amide (peptide) | – | > 1000 nM | –
14 | 2-[2-[2-[[2-[2-[2-[[(4S)-4-Carboxy-4-(17-carboxyheptadecanoylamino)butanoyl]amino]ethoxy]ethoxy]acetyl]amino]ethoxy]ethoxy]acetyl-DbAsp-Phe(4-sulfomethyl)-Nle-Gly-Trp-Nle-DMeAsp-MePhe-amide (peptide) | – | > 1000 nM | –
15 | CCCC[C@H](NC(=O)[C@H](Cc1c[nH]c2ccccc12)NC(=O)CNC(=O)[C@H](CC(C)C)NC(=O)[C@H](Cc1ccc(OS(=O)(=O)O)cc1)NC(=O)[C@H](CC(=O)O)NC(=O)COCCOCCNC(=O)COCCOCCNC(=O)CC[C@H](NC(=O)CCCCCCCCCCCCCCCCC(=O)O)C(=O)O)C(=O)N(C)[C@H](CC(=O)O)C(=O)N(C)[C@@H](Cc1ccccc1)C(N)=O [Example 9, 2-[2-[2-[[2-[2-[2-[[(4S)-4-Carboxy-4-(17-carboxyheptadecanoylamino)butanoyl]amino]ethoxy]ethoxy]acetyl]amino]ethoxy]ethoxy]acetyl-Asp-sTyr-Leu-Gly-Trp-Nle-DMeAsp-MePhe-amide] | – | – | EC50 [1]: 170 nM
16 | CCCC[C@H](NC(=O)[C@H](Cc1c[nH]c2ccccc12)NC(=O)CNC(=O)[C@H](CC(C)C)NC(=O)[C@H](Cc1ccc(OS(=O)(=O)O)cc1)NC(=O)[C@H](CCC(=O)O)NC(=O)COCCOCCNC(=O)COCCOCCNC(=O)CC[C@H](NC(=O)CCCCCCCCCCCCC(=O)O)C(=O)O)C(=O)N(C)[C@H](CC(=O)O)C(=O)N(C)[C@@H](Cc1ccccc1)C(N)=O [Example 36, 2-[2-[2-[[2-[2-[2-[[(4S)-4-Carboxy-4-(13-carboxytridecanoylamino)butanoyl]amino]ethoxy]ethoxy]acetyl]amino]ethoxy]ethoxy]acetyl-Glu-sTyr-Leu-Gly-Trp-Nle-DMeAsp-MePhe-amide] ({C14 diacid-γGlu-AEEA-AEEA}-E[sY]LGW[Nle][dNMeD][NMeF]-NH2) | 150 nM | – | –
17 | CCCC[C@H](NC(=O)[C@H](Cc1c[nH]c2ccccc12)NC(=O)CNC(=O)[C@H](CC(C)C)NC(=O)[C@H](Cc1ccc(OS(=O)(=O)O)cc1)NC(=O)[C@@H](CCC(=O)O)NC(=O)COCCOCCNC(=O)COCCOCCNC(=O)CC[C@H](NC(=O)CCCCCCCCCCCCCCCCC(=O)O)C(=O)O)C(=O)N(C)[C@H](CC(=O)O)C(=O)N(C)[C@@H](Cc1ccccc1)C(N)=O [Example 49, 2-[2-[2-[[2-[2-[2-[[(4S)-4-Carboxy-4-(17-carboxyheptadecanoylamino)butanoyl]amino]ethoxy]ethoxy]acetyl]amino]ethoxy]ethoxy]acetyl-DGlu-sTyr-Leu-Gly-Trp-Nle-DMeAsp-MePhe-amide] ({C18 diacid-γGlu-AEEA-AEEA}-[dE][sY]LGW[Nle][dNMeD][NMeF]-NH2) | 46 nM | – | –
18 | CCCC[C@H](NC(=O)[C@H](Cc1c[nH]c2ccccc12)NC(=O)CNC(=O)[C@H](CC(C)C)NC(=O)[C@H](Cc1ccc(OS(=O)(=O)O)cc1)NC(=O)[C@@H](N)CC(=O)O)C(=O)N(C)[C@H](CC(=O)O)C(=O)N(C)[C@@H](Cc1ccccc1)C(N)=O [Example 60, Asp-sTyr-Leu-Gly-Trp-Nle-DMeAsp-MePhe-amide] | 380 nM | – | –
